B1: Venus::LAT-1 (C. elegans latrophilin homolog LAT-1 fused to Venus) [C. elegans] / Nluc::LAG-2 (C. elegans DSL protein/Notch ligand LAG-2 fused to Nanoluciferase) [C. elegans] (parent complex)
chain 1: SNKPTTDESGTISHTICDGEAAELSCPAGKVISIVLGNYGRFSVAVCLPDNDIVPSNINCQNHKTKSILEKKCNGDSMCYFTVDKKTFTEDPCPNTPKYLEVKYNCVVPATTTTTTTTTSTTTTDSSLIVDEEEEAQKDALNSDVIKPVKKKEDVFCSATNRRGVNWQNTKSGTTSSAPCPEGSSGKQLWACTEEGQWLTEFPNSAGCESNWISSRNSVLSGVISSEDVSGLPEFLRNLGSETRRPMVGGDLPKVLHLLEKTVNVIAEESWAYQHLPLSNKGAVEVMNYMLRNQEIWGSWDVTKRKEFASRFILAAEKAMVASAKGMMTSAESNVIVQPAITVEISHKIKMSSQPTDYILFPSAALWNGQNVDNVNIPRDAILKINKDETQVFFSSFDNLGAQMTPSDVTVAIAGTDQTEVRKRRVVSRIVGASLIENGKERRVENLTQPVRITFYHKESSVRHLSNPTCVWWNHHELKWKPSGCKLSYHNKTMTSCDCTHLTHFAVLMDVRGHDLNEIDQTLLTLLTYVGCIISIICLLLTFFAYLIFSRNGGDRVFIHENLCLSLAIAEITFLAGITRTEDSLQCGIIAVALMYMFLSALTWMLLEGYHIHRMLTEVFPSDPRRFTYLLVGYIPPAIITLVAYLYNSDGFGTPDHCWLSTQNNFIWFFAGPACFIFCANSLVLVKTLCTVYQHTSGGYLPCRHDVDSGRSIRNWVKGSLALASLLGVTWIFGLFWVEDSRSIVMAYVFTISNSLQGLFIFLFHVVFAEKMRKDVGHWMYRRGCGGSSNSSPNHKRHNVQRDLMSPGVNSSTGSDFLYNTNDKYLTNSDTTNRLVYNGIMNHPNQMSVYQQHPHHQIYEQQPGTYDYATIAYGDMMPGHRVAAPPAYQRLAVAEGRYGSQHQLYQGWHHRPPPEFSPPPPPLSTGPPNSRHYGTGSSGRRPPSSKMSDDSAYSDGSSSMLTTEVTPQGQTVLRIDLNKPSMYCQDL
chain 2: QARVEVHQEFISSKRVSVRFEIVTESHSPNRPVTFDLFPRGPKTNIILLDTFNPVFNFSIQLVQPFTGQPLGDRIYRKVQFSGTNQPWINDTFTTTSGISLSVATEVTCARNYFGNRCENFCDAHLAKAARKRCDAMGRLRCDIGWMGPHCGQAVDPRKCSCENDGICVSSMIHPSQPNQTSSNEQLICECTNGFTGTRCEIFGFNQFQLTAPRPDACSVKDACLNGAKCFPNGPKVFCSCAVGFIGEFCEISLTTTTPTTVEITVSTSGYSSAVYITVALFVIFSIIIGCFKYKFKPMRQQALARGQVPEPYKMPETKSMLIDPEASEAQKKVFTIEGSVQKIDEEVRYTSAPRKYESNNEYAVIQKSTPPPPSLSPPSIPACHYV

Variants of: B1
Assay: NanoBRET; HEK293 cells; Venus::LAT-1 acceptor, Nluc::LAG-2 donor; parent: 0.0042; read off a plot

screen value | Variant
~0.0053 | chain 1 L36A, chain 1 F42A, chain 1 D50A, chain 1 D52A, chain 1 V54A
~0.0025 | chain 1 Q354A, chain 1 P355A, chain 1 D357A, chain 1 Y358A, chain 1 L360A, chain 1 L366A, chain 1 W367A

Reference: publication PMC12255766 (2025)
